According to publication PMC6093232, “PROMIS, global analysis of PROtein–metabolite interactions using size separation in Arabidopsis thaliana” (The Journal of Biological Chemistry, 2018):

Key:
[1] = target: human recombinant GAPDH protein (human) (UniProt P04406); assay: nano-DSF (thermal shift, Prometheus NT.48); human GAPDH 1 μM with 500 μM dipeptide in 10 mM Tris-HCl pH 7.5, 0.5 M NaCl; thermal ramp 2 °C/min, 20–90 °C; Tm from F350/F330
[2] = target: His6-GAPCP2 (A. thaliana) (UniProt Q5E924); assay: nano-DSF (thermal shift, Prometheus NT.48); plant GAPCs 0.2–0.25 mg/ml with 25 μM (GAPC1/2, GAPCP1) or 50 μM (GAPCP2) dipeptide in 1× PBS; thermal ramp 2 °C/min, 20–90 °C; Tm from F350/F330
[3] = target: His6-GAPCP1 (A. thaliana) (UniProt Q9SAJ6); assay: as above
Chain of His6-GAPCP1 (A. thaliana) (Q9SAJ6 70-422): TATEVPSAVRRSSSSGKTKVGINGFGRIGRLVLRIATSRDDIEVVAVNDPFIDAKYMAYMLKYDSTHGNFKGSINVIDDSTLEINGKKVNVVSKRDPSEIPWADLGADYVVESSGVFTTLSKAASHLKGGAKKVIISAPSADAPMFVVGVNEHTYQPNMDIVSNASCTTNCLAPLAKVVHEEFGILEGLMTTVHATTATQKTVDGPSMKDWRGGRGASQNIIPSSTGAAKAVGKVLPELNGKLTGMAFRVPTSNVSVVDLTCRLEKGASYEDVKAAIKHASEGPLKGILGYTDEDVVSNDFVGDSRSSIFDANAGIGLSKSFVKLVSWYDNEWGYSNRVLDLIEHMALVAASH

Chain of human recombinant GAPDH protein (human) (P04406 whole entry): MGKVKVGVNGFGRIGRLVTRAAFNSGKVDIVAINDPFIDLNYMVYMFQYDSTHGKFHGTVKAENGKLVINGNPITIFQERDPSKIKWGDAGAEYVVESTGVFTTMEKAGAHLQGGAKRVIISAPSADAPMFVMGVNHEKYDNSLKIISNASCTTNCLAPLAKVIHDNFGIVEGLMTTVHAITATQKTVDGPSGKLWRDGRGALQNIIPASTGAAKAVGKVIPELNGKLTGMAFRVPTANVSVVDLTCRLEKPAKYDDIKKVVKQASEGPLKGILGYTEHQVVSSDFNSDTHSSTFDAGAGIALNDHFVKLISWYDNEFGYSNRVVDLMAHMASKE
Chain of His6-GAPCP2 (A. thaliana) (Q5E924 67-420): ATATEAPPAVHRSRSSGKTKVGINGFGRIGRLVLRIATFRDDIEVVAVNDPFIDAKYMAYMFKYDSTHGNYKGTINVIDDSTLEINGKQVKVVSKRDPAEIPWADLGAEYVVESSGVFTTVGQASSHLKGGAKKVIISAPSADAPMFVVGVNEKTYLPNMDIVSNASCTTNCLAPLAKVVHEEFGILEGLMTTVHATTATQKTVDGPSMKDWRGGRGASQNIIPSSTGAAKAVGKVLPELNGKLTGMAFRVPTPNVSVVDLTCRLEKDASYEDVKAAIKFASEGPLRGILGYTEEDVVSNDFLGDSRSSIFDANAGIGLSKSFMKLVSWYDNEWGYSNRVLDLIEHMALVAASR

dipeptide Tyr–Asp
increase of Tm with 500 μM Tyr–Asp [1]: 1.1 °C
decrease of Tm with 50 μM Tyr–Asp [2]: 1.5 °C
decrease of Tm with 25 μM Tyr–Asp [3]: 2 °C
